Assay: soluble on expression in E. coli; label from the status in PepcDB or PDB records

Row | Sequence | soluble on expression in E. coli
1 | MDSKAIAERIKKLQAQQEHVRIGGKGTPRRKKKVIHKTAAADDKKLQSNLKKLSVTNIPGIEEVNMIKDDGTVIHFNNPKVQTSVPANTFSVTGSADNKQITEMLPGILNQLGPESLTHLKKLANNVTKLGPDGKGEDEDVPELVGDFDAASKNETKADEQ | soluble
2 | MDSNDLEASFTSRLPPEIVAALKRKSSRDPNSRFPRKLHMLLTYLASNPQLEEEIGLSWISDTEFKMKKKNVALVMGIKLNTLNVNLRDLAFEQLQHDKGGWTQWKRSGFTRNSVFEDPTQNDSPMHHHHHH | soluble
3 | MDSNLMSSVSTSAILGGENFADLFAESLKSQDMKSGEVISAEVVRVDHNFVVVNAGLKSEALIPLEEFLNDQGELEVQPGDFVSVAIDSLENGYGDTILSRDRAKRLSAWLQLEQALENGELVTGTITGKVKGGLTVMTNGIRAFLPGSLVDLRPVKDTTPYEGKTLEFKVIKLDRKRNNVVLSRRQVLEASMGEERQKLLETLHEGAVVKGVVKNITDYGAFVDLGGIDGLLHITDMAWRRVRHPSEVLQVGQEVEAKVLKFDQEKSRVSLGVKQLGEDPWVGLARRYPQGTRLFGKVTNLTDYGAFVEVEAGIEGLVHVSEMDWTNKNVDPRKVVTLGEEVEVMVLEIDEDRRRISLGMKQCRQNPWEEFATNFKRGDKVRGAIKSITDFGVFVGLPGGIDGLVHLSDLSWTESGEEAVRNFKKGDELEAVVLGIDTEKERISLGIKQLEGDPFNNFVATHDKGAVVPGTIKSVEPKGAVITLSVDVEGYLRASEISSGRVEDATTVLKAGENIEAMIVNIDRKARSIQLSIKARDNAETAETIQRMSEASASSGTTNLGALLKAKLDQQRNDGLEHHHHHH | not soluble
4 | MDTAGIRLTPKEIVSKLNEYIVGQNDAKRKVAIALRNRYRRSLLDEESKQEISPKNILMIGPTGVGKTEIARRMAKVVGAPFIKVEATKFTEVGYVGRDVESMVRDLVDVSVRLVKAQKKSLVQDEATAKANEKLVKLLVPSMKKKASQTNNPLESLFGGAIPNFGQNNEDEEEPPTEEIKTKRSEIKRQLEEGKLEKEKVRIKVEQDPGALGMLGTNQNQQMQEMMNQLMPKKKVEREVAVETARKILADSYADELIDQESANQEALELAEQMGIIFIDEIDKVATNNHNSGQDVSRQGVQRDILPILEGSVIQTKYGTVNTEHMLFIGAGAFHVSKPSDLIPELQGRFPIRVELDSLSVEDFVRILTEPKLSLIKQYEALLQTEEVTVNFTDEAITRLAEIAYQVNQDTDNIGARRLHTILEKMLEDLSFEAPSMPNAVVDITPQYVDDKLKSISTNKDLSAFIL | not soluble
5 | MDTELMKLDVHVTAWSRTPSSSGFLNSVMISRDRDFEEFIINDRDGSVTSLGSYQNPSRGPDPLIFLDFRNFEPNYVYQLLLSQFHDHVLSEHIADQIGYTFGTCNSPTSTTDLDQESEEEE | soluble
6 | MDTQDPLSQKYAISMLFFLLDRGNVKQFELLKIISSNMTIEKLSKILEEAGLINIKREFTGRKSYSFSLTPKGRLVAEQLKKAEEIAQKPSAEIEESVEKIELLLANEEAERIREWSFLLHINIMDDHITEEISGKSPRFFNIYIKRNGNGEFLLWCEQDNSYDCWHVKAAWTYPEVQKMMMHYKGKVKICHICGYENAEEGKFCTNCGTKLE | not soluble
7 | MDVKMKGIVRVVPYDPEWKTEFLKIKAMIVDCAGDLIIDVVHVGSTAIEGLASKPIIDIDVVIDSYYVFPAVKDRLAKIGFEHEGNLGVEGREAFKRTFVDDFMPYHLYICPKDGKGYLEHIAFRNYLRDHPEAVKAYGELKMRLAEQFRTDITSYVNAKREFVQNVLKKINS | soluble
8 | MDVLSGTQVTDPEQLIVNREEVDDIELKMAELLSDLERKVLALYLDGRSYQEISEELNRHVKSIDNALQRVKRKLEKYLEYREISL | not soluble
9 | MDVNPTLLFLKVPAQNAISTTFPYTGDPPYSHGTGTGYTMDTVNRTHQYSEKGRWTTNTETGAPQLNPIDGPLPEDNEPSG | soluble
10 | MDVRQSIHSAHAKTLDTQGLRNEFLVEKVFVADEYTMVYSHIDRIIVGGIMPITKTVSVGGEVGKQLGVSYFLERRELGVINIGGAGTITVDGQCYEIGHRDALYVGKGAKEVVFASIDTGTPAKFYYNCAPAHTTYPTKKVTPDEVSPVTLGDNLTSNRRTINKYFVPDVLETCQLSMGLTELAPGNLWNTMPCHTHERRMEVYFYFNMDDDACVFHMMGQPQETRHIVMHNEQAVISPSWSIHSGVGTKAYTFIWGMVGENQVFDDMDHVAVKDLR | not soluble
11 | MDVVILDTGCANLSSVTYAVQRLGYTPVISRDPAVVLRADKLFMPGVGTAHAAMEQLRQRELIELIKSCTQPVLGICLGMQLLATSSEESGGITTLGMIDAPVKKMTDFGLPLPHMGWNQITAQAGNHLFRGIPDGTYFYFVHGYAMPICPNTIAQTNYGEPFTAAVEKDNFFGVQFHPERSGAAGAQLMKNFLEM | not soluble
12 | MDYFPIFCQLQHKACLLVGGGEIAERKARLLLDAGALVTVNACEFTPQFHHWADQGQLSLISGEFVPELLADKWLVIAATDQLSVNALVYQSANQQRIFCNVVDDPKRTSFIMPSIIDRSPIMIAVSSGGKAPVLARLLREKLEALLPQHLGQLAGNLRQRVKQHFTVMTERRRFWEKLLTHDRLAQSLANNDHVQADQHVEQLFSAPLTDRGEVVLVGAGPGDAGLLTLKGLQQIQQADVVVYDRLVSDEVMNLVRRDAERIFVGKQSGHHCVPQEQINQILLQQAQSGKRVVRLKGGDPFIFGRGGEELEELAGYGIPFSVVPGITAASGCSAYSGIPLTHRDHAQSVRLVTGHAKKEGQLDWANLAAEKQTLVFYMGLSQAGEIQQQLIQHGMPATTQVALVENGTSRHQRVVSGELSQLALLSQQVSSPSLIIVGSVVSLREKLNWFSSRHHDDQPKVTECVAHVG | not soluble
13 | MDYGMYFFEHVTPYETLVRRMERVIASGKTPFQDYFLFESKGFGKVLILDKDVQSTERDEYIYHETLVHPAMLTHPEPKRVLIVGGGEGATLREVLKHPTVEKAVMVDIDGELVEVAKRHMPEWHQGAFDDPRAVLVIDDARAYLERTEERYDVVIIDLTDPVGEDNPARLLYTVEFYRLVKAHLNPGGVMGMQAGMILLTHHRVHPVVHRTVREAFRYVRSYKNHIPGFFLNFGFLLASDAFDPAAFSEGVIEARIRERNLALRHLTAPYLEAMFVLPKDLLEALEKETMVSTDQNPFYVTPEGEARQAPYKG | soluble
14 | MDYLIVGAGFTGATLAERLAAAGKRVLVVDRRDHIGGNAYDEMDPHGVLVHRYGPHIFHTNSKKVFDYLSRFTEWRPYYHRVRAVVEGKEVPLPFSLATLRALFSPKLADRLEEKLIARFGYGARVPILRLREEEDPDLRFLADYVYKNVFEGYTLKQWGLRPEELSPSVTARVPVLVSHDTRYFQDAYQAMPKEGYTALFRRMLAHPNIKLLLQADWKEVEGEVKFARLVFTGPIDEFFGYLHGPLPYRSLRFRMELHPGPWAQEVGTVNYPNEHPYTRVTEFKHLTGQDYLPHSTLCYEYPEAYEPGRNEPYYPVPREENEERYRLYLEEAKKLKGVYFAGRLGDYRYYNMDQAVARALKLFEEIVHE | soluble
15 | MDYLPLFADLKQRPVLIVGGGEVAARKIELLHRAGAQVWVVAQTLSSELEQQYQDGRIHWLAQDFLPEQLDNVFLVIAATNDTVLNAAVFAAADQRCILANVVDDQPLCSFIFPSIVDRSPLVVAISSSGQAPVLARILREKLEALLPTRLSDMAAIAGRWRGRVKQHMASMGERRRFWEHAFSGRFASLISRGQLTEAENELQLSLEGQHRALGEVALVGAGPGDAGLLTLRGLQVMQQADVVLYDHLVSPEVLDLVRRDAERICVGKRAGAHSVTQEATNQLLVTLAQQGKRVVRLKGGDPFIFGRGGEELQVVAQAGIPFQVVPGVTAAAGATAYAGIPLTHRDHAQSVTFITGHCRPDGDDLDWQTLARGRQTLAIYMGTVKAAAISQQLIAHGRSSTTPVAVIGRGTRVDQQVLIGTLAQLESLAQQAPTPALLVIGEVVNLHHQIAWFGQQPQTESAISPSVVNLA | not soluble
16 | MDYYYSLISPPCQSAILLAKKLGITLNLKKTNVHDPVERDALTKLNPQHTIPTLVDNGHVVWESYAIVLYLVETYAKDDTLYPKDPKVRSVVNQRLFFDIGTLYKRIIDVIHLVMKKEQPSDEQMEKLKGALDLLEQFVTERAYAAADHLTVADICLLGTVTALNWLKHDLEPFPHIRAWLERVRAEMPDYEEFSKQVADDTLAYVASRK | soluble
17 | MEAIDMPYKITALQPFGVIVEPKHAPIHVNELDIDELRELFLREQLVLLRGFETFEHSEQFADYCERWGEVSVWPFGRVLDLVQKEDPGDHIFDSSYMPMHWDGMYRPQVPEYQIFQCVKAPLPGHGGRTTFSHTMLALQHAPQPDLELWQQVTGHYQRKMEFYHSKTVSPIVMQHPYRDYQVIRYNEPHFEENGDLLNPPDVSLSGITPEQAIEFHKSLRRALYDPRNFYAHEWQTGDIVITDNFSLLHGREAFTSHTPRHIRRVQVLSNPPYNNPSLESYQCPQK | not soluble
18 | MEALDSSSFTFPQDYEFSYVVNHNCSADGNTYCVQPVKPTTVSRFGTRYIKFDIKALPVGSPIPCKSPKEWRVIKG | not soluble
19 | MECGLGGAGQPAVEAEGVWKRLGGRWVLKDVSLTVPRGSVYGVVGPNGAGKTTLFRTLLGLYRADRGRVALLGEPVERAGGSLFRRVAYLPEDGEPYRNMTGHEFLRLYASIYGVEDLEGYLEEASRLSGLGGRLGERVRSYSKGMRRRLLVAAMLALKPSLAVLDEPTAGLDPVYSVGIRRLLKEYSERHGVTVLLSSHNMYEVESVCSEITMISSGRIVYSGSPGEAVRRTGASSLEEAYVALVTGGGGES | soluble
20 | MEDDPVWRFDDRDVILYNIALGATTKQLKYVYENDSDFQVIPTFGHLITFNSGKSQNSFAKLLRNFNPMLLLHGEHYLKVHSWPPPTEGEIKTTFEPIATTPKGTNVVIVHGSKSVDNKSGELIYSNEATYFIRNCQADNKVYADRPAFATNQFLAPKRAPDYQVDVPVSEDLAALYRLSGDRNPLHIDPNFAKGAKFPKPILHGMCTYGLSAKALIDKFGMFNEIKARFTGIVFPGETLRVLAWKESDDTIVFQTHVVDRGTIAINNAAIKLVGDKAKI | soluble
21 | MEDENILRNAVNLQVLKFHYPEIESIIDIASHVAVYQFDVGSQKWLKTSIEGTFFLVKDQRARVGYVILNRNSPENLYLFINHPSNVHLVDRYLIHRTENQHVVGLWMFDPNDMSRIFNIVKESLLR | soluble
22 | MEDGHISSWWVVDLGEEHQLMCNYYTFRQDGSRAFTRFWKFQGSMDGKTWTDLRVHEDDQTMCKAGQFASWPITAANALLPFRFFRLVLTGPTADTSTPWNFCICYLELYGYFR | not soluble
23 | MEDISDPEVILEYGVYPAFIKGYTQLKANIEEALLEMSNSGQALDIYQAVQTLNAENMLLNYYESLPFYLNRQSILANMTKALKDAHIREAMAHYKLGEFAHYQDTMLDMVERTIKTF | not soluble
24 | MEDKKDALISKTISMLLDNGFAVADISGQFSASFDIIARRNIERYVLKVLYNIDTLKPTTAYQLAKVAKFLRSTATIVGEKAGGGPLEDGVIYYRHGIPISSLDTFRDYINGEKPYIYSGPGGFYVKINGEALREMRMKMSLSIGYLSHYLGVSRRSVSLYENGSSATIDVFLKLQEIIKSDLVDHTDLFKIIPDNFQEEERVDDVYIQMLLDILERIGLDTKPAYRMPFDILARDEEVVSLIASLLSEEADKTKIEIMKKISSVLEDDAFLISKHSTTRENINGCPVINIVDLEKMTSKDELLRMLEKRAR | not soluble

From the DeepSol protein solubility set
